Results taken from US20220396612A1 (UNIVERSIT DE TOURS, published 2022).

Key:
[1] = molecular target: T1, virus-like particles (VLPs) of BK polyomavirus VP-1 protein, serotype IV (BK virus (BKPyV), serotype IV, UniProt P14996 1-362); assay: ELISA on coated VLP; supernatant 1/20
T1 construct: native VLPs; also called VLP IV
T1 chain: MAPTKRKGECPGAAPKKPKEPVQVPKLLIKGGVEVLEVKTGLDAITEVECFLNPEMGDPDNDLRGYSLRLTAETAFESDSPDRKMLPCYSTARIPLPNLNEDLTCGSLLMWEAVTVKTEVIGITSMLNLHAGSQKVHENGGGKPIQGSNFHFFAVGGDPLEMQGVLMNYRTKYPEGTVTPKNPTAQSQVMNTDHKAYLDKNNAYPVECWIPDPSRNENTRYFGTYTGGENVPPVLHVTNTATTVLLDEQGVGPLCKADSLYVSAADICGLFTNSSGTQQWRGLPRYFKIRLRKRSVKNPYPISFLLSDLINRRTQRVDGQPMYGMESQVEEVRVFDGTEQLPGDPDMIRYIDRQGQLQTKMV
Procedure: (§1) To do this, the VLPs produced were deposited at a concentration of 1 μg/mL in PBS and incubated overnight at +4° C. The wells were then blocked for 1 h at +37° C. with a PBS/FCS (phosphate-buffered saline/fetal calf serum) mixture. After dilution in a dilution buffer containing FCS, PBS and Tween® 20, the various hybridoma culture supernatants were added for 1 h at +37° C. The wells were washed four times in a row with Wash Buffer and a secondary anti-mouse antibody coupled to peroxidase was added to the 1:2000 dilution for 1 h at +37° C. The wells were washed four more times and the substrate (OPD (ortho phenylene diamine)+H₂O₂) was added for 30 min at room temperature. A stop solution (H₂SO₄ 4N) was then added and each well was read by measuring the absorbance at 492 nm with a spectrophotometer. The value obtained for the average of the control wells (PBS in the first step) is subtracted from the optical density values obtained for each well.

[2] = molecular target: T2, virus-like particles (VLPs) of BK polyomavirus VP-1 protein, serotype II (BK virus (BKPyV), serotype II, UniProt P14996 1-362); assay: ELISA on coated VLP; supernatant 1/20
T2 construct: native VLPs; also called VLP II
T2 chain: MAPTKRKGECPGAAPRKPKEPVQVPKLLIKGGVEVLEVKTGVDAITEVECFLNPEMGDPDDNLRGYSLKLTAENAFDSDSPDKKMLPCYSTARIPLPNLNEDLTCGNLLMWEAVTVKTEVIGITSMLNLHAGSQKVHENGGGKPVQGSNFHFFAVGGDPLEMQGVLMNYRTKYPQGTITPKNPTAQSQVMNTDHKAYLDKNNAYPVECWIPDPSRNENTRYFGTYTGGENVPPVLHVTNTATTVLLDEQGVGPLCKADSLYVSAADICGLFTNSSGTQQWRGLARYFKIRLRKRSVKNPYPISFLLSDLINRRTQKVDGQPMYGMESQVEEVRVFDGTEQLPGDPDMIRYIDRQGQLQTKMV
Procedure: as §1

[3] = molecular target: T3, virus-like particles (VLPs) of BK polyomavirus VP-1 protein, serotype Ib2 (BK virus (BKPyV), serotype Ib2, PA …, UniProt P03088 1-362); assay: ELISA on coated VLP; supernatant 1/20
T3 construct: native VLPs; also the immunogen; also called VLP Ib2; BK Ib2
T3 chain: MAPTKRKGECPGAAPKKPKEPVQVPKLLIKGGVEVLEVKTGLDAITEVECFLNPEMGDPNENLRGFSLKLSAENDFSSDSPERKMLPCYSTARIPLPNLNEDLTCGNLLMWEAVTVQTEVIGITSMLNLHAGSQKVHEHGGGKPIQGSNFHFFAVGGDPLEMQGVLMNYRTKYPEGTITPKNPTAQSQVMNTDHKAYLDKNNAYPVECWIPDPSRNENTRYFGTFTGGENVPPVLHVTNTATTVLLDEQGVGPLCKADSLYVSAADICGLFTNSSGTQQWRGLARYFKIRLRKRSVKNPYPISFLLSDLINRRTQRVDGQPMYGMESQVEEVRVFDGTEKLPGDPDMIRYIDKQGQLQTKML
Procedure: as §1

[4] = molecular target: T4, virus-like particles (VLPs) of BK polyomavirus VP-1 protein, serotype Ia (BK virus (BKPyV), serotype Ia, UniProt P03088 1-361); assay: ELISA on coated VLP; supernatant 1/20
T4 construct: self-assembled native VLPs coated on ELISA plates; also called VLP Ia; BKV VP-1, serotype Ia
T4 chain: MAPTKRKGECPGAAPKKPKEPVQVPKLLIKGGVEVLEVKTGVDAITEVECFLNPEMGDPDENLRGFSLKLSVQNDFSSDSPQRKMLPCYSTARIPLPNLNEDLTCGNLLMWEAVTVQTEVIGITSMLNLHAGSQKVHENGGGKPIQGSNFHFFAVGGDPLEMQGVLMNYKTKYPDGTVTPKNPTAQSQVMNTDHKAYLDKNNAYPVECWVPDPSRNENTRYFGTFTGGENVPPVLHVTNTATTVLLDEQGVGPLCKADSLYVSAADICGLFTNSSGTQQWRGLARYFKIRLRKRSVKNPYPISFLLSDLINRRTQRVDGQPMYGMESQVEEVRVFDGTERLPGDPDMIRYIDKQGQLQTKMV
Procedure: as §1

[5] = molecular target: T3, virus-like particles (VLPs) of BK …; assay: ELISA on coated VLP; supernatant 1/1 280
Procedure: as §1

[6] = molecular target: T1, virus-like particles (VLPs) of BK …; assay: ELISA on coated VLP; supernatant 1/80
Procedure: as §1

[7] = molecular target: T2, virus-like particles (VLPs) of BK …; assay: ELISA on coated VLP; supernatant 1/80
Procedure: as §1

[8] = molecular target: T3, virus-like particles (VLPs) of BK …; assay: ELISA on coated VLP; supernatant 1/80
Procedure: as §1

[9] = molecular target: T4, virus-like particles (VLPs) of BK …; assay: ELISA on coated VLP; supernatant 1/80
Procedure: as §1

[10] = molecular target: T1, virus-like particles (VLPs) of BK …; assay: ELISA on coated VLP; supernatant 1/40
Procedure: as §1

[11] = molecular target: T2, virus-like particles (VLPs) of BK …; assay: ELISA on coated VLP; supernatant 1/40
Procedure: as §1

[12] = molecular target: T3, virus-like particles (VLPs) of BK …; assay: ELISA on coated VLP; supernatant 1/40
Procedure: as §1

[13] = molecular target: T4, virus-like particles (VLPs) of BK …; assay: ELISA on coated VLP; supernatant 1/40
Procedure: as §1

B1: monoclonal antibody ‘F6’ secreted by clone BK6A2F6 (antibody)
heavy: EVQLQQSGPELVKPGASVKISCKASGYSFTGYFMNWVKQSHGKSLEWIGRINPYNGDTFYNQKFKGKATLTVDKSSSTAHMELLSLTSEDSAVYYCGSYYYGDYFDYWGQGTTLTVSSAKTTPPSVYPLAPGSAAQTNSMVTLGCLVKGYFPEPVTVTWNSGSLSSGVHTFPAVLQSDLYTLSSSVTVPSSTWPSETVTCNVAHPASSTKVDKKIVPRDCGCKPCICTVPEVSSVFIFPPKPKDVLTITLTPKVTCVVVDISKDDPEVQFSWFVDDVEVHTAQTQPREEQFNSTFRSVSELPIMHQDWLNGKEFKCRVNSAAFPAPIEKTISKTKGRPKAPQVYTIPPPKEQMAKDKVSLTCMITDFFPEDITVEWQWNGQPAENYKNTQPIMDTDGSYFVYSKLNVQKSNWEAGNTFTCSVLHEGLHNHHTEKSLSHSPGK
light: […]
OD 492 nm [1]: 3.16 OD
OD 492 nm [2]: 1.65 OD
OD 492 nm [3]: 1.22 OD
OD 492 nm [4]: 3.23 OD
OD 492 nm [5]: 0.11 OD
OD 492 nm [6]: 3.11 OD
OD 492 nm [7]: 0.44 OD
OD 492 nm [8]: 0.59 OD
OD 492 nm [9]: 3.26 OD
OD 492 nm [10]: 3.19 OD
OD 492 nm [11]: 0.9 OD
OD 492 nm [12]: 1.03 OD
OD 492 nm [13]: 3.16 OD

B2: monoclonal antibody ‘H6’ secreted by clone BK6A2H6 (antibody, V domains shown)
VH: EVQLQQSGPELVKPGASVKISCKASGYSFTGYFMNWVKQSHGKSLEWIGRINPYNGDTFYNQKFKGKATLTVDKSSSTAHMELLSLTSEDSAVYYCGSYYYGDYFDYWGQGTTLTVSS
VL: SIVMTQIPKFLLVSEGDRVTITCKASQSVSNDVAWYQQKSGQSPKLLIYYASNRYTGVPDRFTGSGYGTDFTFTISTVQAEDLAVYFCQQDYSSPLTFGAGTKLELKR
OD 492 nm [1]: 3.21 OD
OD 492 nm [2]: 0.86 OD
OD 492 nm [3]: 0.82 OD
OD 492 nm [4]: 3.06 OD
OD 492 nm [5]: 0.14 OD
OD 492 nm [6]: 3.14 OD
OD 492 nm [7]: 0.22 OD
OD 492 nm [8]: 0.49 OD
OD 492 nm [9]: 3.13 OD
OD 492 nm [10]: 3.38 OD
OD 492 nm [11]: 0.44 OD
OD 492 nm [12]: 0.67 OD
OD 492 nm [13]: 3.18 OD
